The results in this text go back to publication PMC3855764, “Oct4/Sox2 Binding Sites Contribute to Maintaining Hypomethylation of the Maternal Igf2/H19 Imprinting Control Region”.

In series [1] the target is T1, Oct4 (recombinant);Sox2 (recombinant) (mouse?;mouse?, UniProt P20263;P48432 1-352;1-319, |). The series is described as follows: EMSA; cooperative ternary complex; printed as at least 50 fold; 10 mM Tris pH 8.0, 2 mM MgCl (so in the source), 100 mM KCl, 1.25 mM DTT, 5% glycerol, 0.0625% BSA, 19 ug/ml dGdC, 25 fmol probe in 16 ul, 10 min room temperature; 4% PAGE 0.25X TBE. To be noted: protein: recombinant;recombinant; tags: ;; copies: 1;1. (In general: A gel shift assay detects complexes by their altered migration in electrophoresis.)
T1 sequence (P20263 whole entry, chain 1 of 2): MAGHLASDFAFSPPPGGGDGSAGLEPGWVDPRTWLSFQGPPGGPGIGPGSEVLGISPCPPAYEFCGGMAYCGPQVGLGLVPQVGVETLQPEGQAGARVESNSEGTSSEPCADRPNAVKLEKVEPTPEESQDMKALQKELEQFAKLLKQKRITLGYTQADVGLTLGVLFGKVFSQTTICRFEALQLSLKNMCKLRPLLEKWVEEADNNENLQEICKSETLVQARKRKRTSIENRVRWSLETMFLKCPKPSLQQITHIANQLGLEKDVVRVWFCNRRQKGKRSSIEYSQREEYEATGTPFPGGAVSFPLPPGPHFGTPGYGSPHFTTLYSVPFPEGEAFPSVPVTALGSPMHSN
T1 sequence (P48432 whole entry, chain 2 of 2): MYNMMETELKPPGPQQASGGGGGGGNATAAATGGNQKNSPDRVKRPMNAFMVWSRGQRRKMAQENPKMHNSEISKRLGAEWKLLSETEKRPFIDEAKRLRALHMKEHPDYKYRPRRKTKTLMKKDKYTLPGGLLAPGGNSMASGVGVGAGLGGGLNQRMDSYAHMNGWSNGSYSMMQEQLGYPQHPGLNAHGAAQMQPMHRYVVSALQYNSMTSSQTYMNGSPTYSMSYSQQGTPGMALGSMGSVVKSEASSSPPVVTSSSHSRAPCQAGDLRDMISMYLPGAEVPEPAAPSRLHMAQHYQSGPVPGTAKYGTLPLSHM

Series [2] has as its target T1, Oct4 (recombinant);Sox2 (recombinant). As to the kind of experiment: EMSA; all CpGs methylated; complex not inhibited; 10 mM Tris pH 8.0, 2 mM MgCl (so in the source), 100 mM KCl, 1.25 mM DTT, 5% glycerol, 0.0625% BSA, 19 ug/ml dGdC, 25 fmol probe in 16 ul, 10 min room temperature; 4% PAGE 0.25X TBE. To be noted: protein: recombinant;recombinant; tags: ;; copies: 1;1.

For series [3] the target is unchanged. The series is described as follows: EMSA; several complexes, minor one likely full occupancy; 10 mM Tris pH 8.0, 2 mM MgCl (so in the source), 100 mM KCl, 1.25 mM DTT, 5% glycerol, 0.0625% BSA, 19 ug/ml dGdC, 25 fmol probe in 16 ul, 10 min room temperature; 4% PAGE 0.25X TBE. The settings on record: protein: recombinant;recombinant; tags: ;; copies: 1;1.
Series [4] has the same target. As to the kind of experiment: EMSA; Oct4-Sox2-Oct4 complex (two Oct4, one Sox2); 10 mM Tris pH 8.0, 2 mM MgCl (so in the source), 100 mM KCl, 1.25 mM DTT, 5% glycerol, 0.0625% BSA, 19 ug/ml dGdC, 25 fmol probe in 16 ul, 10 min room temperature; 4% PAGE 0.25X TBE. The settings on record: protein: recombinant;recombinant; tags: ;; chain copies: 2;1.
Series [5] has the same target. As to the kind of experiment: EMSA; cooperative ternary complex; versus independent binding; 10 mM Tris pH 8.0, 2 mM MgCl (so in the source), 100 mM KCl, 1.25 mM DTT, 5% glycerol, 0.0625% BSA, 19 ug/ml dGdC, 25 fmol probe in 16 ul, 10 min room temperature; 4% PAGE 0.25X TBE. The settings on record: protein: recombinant;recombinant; tags: ;; copies: 1;1.

Bounds are passed on as bounds.

B1: ICR Sox-OctB (dsDNA)
DNA 1: TTGGGGCGTTCAGATGCTAATGATCTCCGGCT
DNA 2: AGCCGGAGATCATTAGCATCTGAACGCCCCAA
As to B1, the binding signal in series [1] was > 50 fold ternary complex over that expected from independent binding.

B2: B* (methylated Sox-OctB) (dsDNA)
DNA 1: B1 DNA 1
DNA 2: B1 DNA 2
modifications: CpG methylated at all CpGs
B2: the binding result in series [2] is reported as “binds”.

B3: mouse ICR Sox-OctA+B (both motifs) (dsDNA)
DNA 1: TTTCGTATTCTAATTGGGGCGTTCAGATGCTAATGATCTC
DNA 2: GAGATCATTAGCATCTGAACGCCCCAATTAGAATACGAAA
For the molecule B3, the binding result in series [3] is listed as “binds”.

B4: human ICR A2 OctA/Sox-OctB, upstream Sox site mutant (dsDNA)
DNA 1: CGCGGAGATGCTAATTTAGGAGCTTGAGATGCTAAAGAGCTG
DNA 2: CAGCTCTTTAGCATCTCAAGCTCCTAAATTAGCATCTCCGCG
Take B4: in series [4], the binding result is “binds”.

B5: ICR Sox-OctA (dsDNA)
DNA 1: CTGGTGATTTGCGCTTTCGTATTCTAATTGGGGAC
DNA 2: GTCCCCAATTAGAATACGAAAGCGCAAATCACCAG
With B5, the binding result in series [5] is “binds”.

B6: A* (methylated Sox-OctA) (dsDNA)
DNA 1: B5 DNA 1
DNA 2: B5 DNA 2
modifications: CpG methylated at all CpGs
As to B6, in series [2], the binding result was “binds”.
